# Biological target: the molecule itself
# Test: FRET or BRET; same proteoliposomes after cholesterol delivery by dialysis against cholesterol-loaded mβCD (up to 24 h); protein-to-lipid ratio 1:16,000; 30°C; relative FRET efficiency
protein,measurement,value
"MBP-Ire1^(P501-K570, C552S) with a C-terminal cysteine (domain or fragment, Saccharomyces cerevisiae, C-terminal cysteine modified by maleimide chemistry with ATTO514 (FRET donor), ATTO594 (FRET acceptor) or NEM (unlabeled), Ire1 from Saccharomyces cerevisiae, residues P501 to K570: the entire transmembrane region with the amphipathic helix and the short transmembrane helix; endogenous cysteine 552 replaced by serine; single cysteine introduced at the C-terminal end of the construct for labeling; Donor-labeled (ATTO514) and acceptor-labeled (ATTO594) copies of the same construct were co-reconstituted; also called …) PEDLEAYRKKIHEQISRELDEKNQNSLLLKFGSLVYRIIETGVFLLLFLIFSAILQRFKILPPLYVLLSKC",binding result,binds
